Data reported in US20160222130A1 (Astellas, published 2016).
Where two headings read alike, the source gives them in different places.

How the values were obtained:
[1] = target: T1, human Tie2 (on human Tie2-expressing cells) (human, UniProt Q02763 23-1124); assay: cell-based or functional assay
[2] = target: T1, human Tie2 (on human Tie2-expressing …); assay: cell-based or functional assay; remark: listed apart in the source
[3] = target: T2, recombinant human Tie2-Fc chimeric protein (R&D, 313-TI-100) (human, UniProt Q02763 23-745); assay: ELISA, Tie2-Fc coated, HRP/TMB absorbance at 450 nm
T2 construct: Bought reagent; Fc part of the bought chimera not given
T2 sequence (Q02763 23-745, change not shown): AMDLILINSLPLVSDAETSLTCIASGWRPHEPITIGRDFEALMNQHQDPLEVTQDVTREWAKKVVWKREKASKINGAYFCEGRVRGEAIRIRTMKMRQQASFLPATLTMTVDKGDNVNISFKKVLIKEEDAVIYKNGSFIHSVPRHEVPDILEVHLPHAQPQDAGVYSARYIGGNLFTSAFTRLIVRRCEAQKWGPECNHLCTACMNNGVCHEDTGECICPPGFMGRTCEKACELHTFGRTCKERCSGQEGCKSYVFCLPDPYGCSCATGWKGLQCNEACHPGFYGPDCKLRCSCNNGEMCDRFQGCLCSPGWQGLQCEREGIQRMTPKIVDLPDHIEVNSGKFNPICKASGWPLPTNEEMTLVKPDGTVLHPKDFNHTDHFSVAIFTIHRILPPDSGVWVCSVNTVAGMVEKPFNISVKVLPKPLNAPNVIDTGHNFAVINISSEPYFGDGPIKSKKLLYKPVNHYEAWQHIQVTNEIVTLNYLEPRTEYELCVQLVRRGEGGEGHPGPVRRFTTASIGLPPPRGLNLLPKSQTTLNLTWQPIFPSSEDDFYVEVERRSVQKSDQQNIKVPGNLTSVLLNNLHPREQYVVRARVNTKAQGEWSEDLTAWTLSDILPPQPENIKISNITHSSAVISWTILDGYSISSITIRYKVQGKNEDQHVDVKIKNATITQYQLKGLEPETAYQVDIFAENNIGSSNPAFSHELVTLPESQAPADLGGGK

[4] = target: T3, recombinant monkey Tie2-Fc chimeric protein (Sino Biological Inc., 90292-C02H) (monkey); assay: as above
T3 construct: Bought reagent

[5] = target: T1, human Tie2 (on human Tie2-expressing …); assay: cell-based or functional assay; remark: listed apart in the source
[6] = target: T1, human Tie2 (on human Tie2-expressing …); assay: cell-based or functional assay; remark: listed apart in the source

T1 sequence (Q02763 23-1124): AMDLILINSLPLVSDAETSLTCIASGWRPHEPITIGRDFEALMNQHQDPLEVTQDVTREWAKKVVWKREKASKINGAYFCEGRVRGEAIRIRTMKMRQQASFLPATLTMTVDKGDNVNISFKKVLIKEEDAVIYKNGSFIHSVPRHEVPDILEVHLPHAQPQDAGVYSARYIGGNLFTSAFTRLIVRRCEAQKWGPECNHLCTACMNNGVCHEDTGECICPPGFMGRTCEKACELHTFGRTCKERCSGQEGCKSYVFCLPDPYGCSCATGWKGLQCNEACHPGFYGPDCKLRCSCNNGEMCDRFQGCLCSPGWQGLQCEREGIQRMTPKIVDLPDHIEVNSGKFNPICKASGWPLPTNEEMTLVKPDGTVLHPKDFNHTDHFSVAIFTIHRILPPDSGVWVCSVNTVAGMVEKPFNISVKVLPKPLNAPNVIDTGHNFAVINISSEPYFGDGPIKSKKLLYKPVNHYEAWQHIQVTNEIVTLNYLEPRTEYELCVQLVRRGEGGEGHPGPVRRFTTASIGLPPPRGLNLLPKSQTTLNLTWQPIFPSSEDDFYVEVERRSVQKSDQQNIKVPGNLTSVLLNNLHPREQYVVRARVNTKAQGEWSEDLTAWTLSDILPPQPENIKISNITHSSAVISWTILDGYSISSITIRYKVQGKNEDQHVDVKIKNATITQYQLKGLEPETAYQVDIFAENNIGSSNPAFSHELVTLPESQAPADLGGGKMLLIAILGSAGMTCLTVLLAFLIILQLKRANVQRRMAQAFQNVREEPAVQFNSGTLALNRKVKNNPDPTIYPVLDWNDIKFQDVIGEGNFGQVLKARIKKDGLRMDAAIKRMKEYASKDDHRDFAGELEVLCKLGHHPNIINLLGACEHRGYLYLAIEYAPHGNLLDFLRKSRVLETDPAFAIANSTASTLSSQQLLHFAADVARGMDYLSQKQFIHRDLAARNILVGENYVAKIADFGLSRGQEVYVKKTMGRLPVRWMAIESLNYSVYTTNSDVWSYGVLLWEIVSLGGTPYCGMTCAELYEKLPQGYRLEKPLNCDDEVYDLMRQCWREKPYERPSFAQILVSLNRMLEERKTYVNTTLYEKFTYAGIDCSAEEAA

B1: murine monoclonal antibody 15B8 (antibody, V domains shown)
VH: QVQLQQPGVVLVMPGASVKLSCKASGYTFASYWMHWVKQRPGQGLEWIGEIDPSDSYRNYNQKFKGKATLTVDKSSSTVNMQLSSLTSEDSAVYYCAKTSGIGRAMDYWGQGTSVTVSS
VL: DIQMIQSPASLSASVGETVTITCRASENIYSFVTWYQQKQGKSPQLLVFNAKNLVEGVPSSFSGSGSGTQFSLKIDSLQPEDFGTYYCQHHYSIPYTFGGGTKLEMR
anti-apoptotic activity, human Tie2-expressing BaF3 cell (maximum, relative to Ang-1) [1]: ~60% | EC50 value of anti-apoptotic activity, human Tie2-expressing BaF3 cell [2]: 0.0266 µg/mL | EC50 [3]: 0.219 µg/mL | EC50 [4]: 0.224 µg/mL

B2: fully human 2-16A2 (antibody, human IgG1, kappa, V domains shown)
VH: EVQLVESGGGLVQPGGSLRLSCAASGFTFDDYAMHWVRQAPGKGLEWVAGISWNSGSIVYADSVKGRFTISRDNSKNTLYLQMNSLRAEDTAVYYCAKDIREQLVEDAFDIWGQGTLVTVSS
VL: DIQMTQSPSSLSASVGDRVTITCRSSQSLLHSHRYNYLDWYQQKPGKAPKLLIYLGSNRASGVPSRFSGSGSGTDFTLTISSVQPEDFATYYCMQTLQTPLTFGQGTKVEIKR
EC50 value of anti-apoptotic activity, human Tie2-expressing BaF3 cell [5]: 0.0376 µg/mL

B3: TIE-1-Igγ1-WT (antibody, human IgG1, kappa)
heavy: not shown
light: DIQMTQSPSSLSASVGDRVTITCRSSQSLLHSHRYNYLDWYQQKPGKAPKLLIYLGSNRASGVPSRFSGSGSGTDFTLTISSVQPEDFATYYCMQTLQTPLTFGQGTKVEIKRTVAAPSVFIFPPSDEQLKSGTASVVCLLNNFYPREAKVQWKVDNALQSGNSQESVTEQDSKDSTYSLSSTLTLSKADYEKHKVYACEVTHQGLSSPVTKSFNRGEC
EC50 value of anti-apoptotic activity, human Tie2-expressing BaF3 cell [5]: 0.0071 µg/mL

B4: TIE-1-Igγ1-I253A (antibody, human IgG1, kappa, L234A L235A)
heavy: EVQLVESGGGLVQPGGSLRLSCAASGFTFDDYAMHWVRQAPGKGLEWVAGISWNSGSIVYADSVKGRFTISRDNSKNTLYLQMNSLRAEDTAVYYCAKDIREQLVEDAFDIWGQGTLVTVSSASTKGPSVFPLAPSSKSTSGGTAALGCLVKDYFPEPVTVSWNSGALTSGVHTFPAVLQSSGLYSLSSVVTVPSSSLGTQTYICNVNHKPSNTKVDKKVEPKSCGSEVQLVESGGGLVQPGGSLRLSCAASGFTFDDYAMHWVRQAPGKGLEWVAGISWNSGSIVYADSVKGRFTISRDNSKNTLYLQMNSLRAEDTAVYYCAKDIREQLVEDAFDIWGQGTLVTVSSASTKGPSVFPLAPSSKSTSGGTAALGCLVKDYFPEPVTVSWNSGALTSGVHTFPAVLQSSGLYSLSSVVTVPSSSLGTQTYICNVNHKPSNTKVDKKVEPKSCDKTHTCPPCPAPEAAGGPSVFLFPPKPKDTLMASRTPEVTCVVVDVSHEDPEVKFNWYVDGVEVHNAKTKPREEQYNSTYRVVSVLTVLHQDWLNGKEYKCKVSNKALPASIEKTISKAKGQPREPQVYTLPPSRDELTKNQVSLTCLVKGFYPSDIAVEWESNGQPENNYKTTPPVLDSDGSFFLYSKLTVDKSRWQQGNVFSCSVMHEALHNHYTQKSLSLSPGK
light: B3 light
EC50 value of anti-apoptotic activity, human Tie2-expressing BaF3 cell [6]: 0.00506 µg/mL
